According to PMC10944878, “Formation of HopQ1:14-3-3 complex in the host cytoplasm modulates nuclear import rate of Pseudomonas syringae effector in Nicotiana benthamiana cells” (Frontiers in Plant Science, 2024):

Legend:
[1] = target: the molecule itself; assay: SEC-MALS; phosphorylated HopQ1 mixed with Nt14-3-3a at a 1:2 mass ratio, 2 h at 4°C; Superdex 200 10/300GL, 100 mM Tris-HCl pH 8.0, 150 mM NaCl, 5 mM DTT
[2] = target: T1, HopQ1-6xHis, in vitro phosphorylated by AtCPK3 (Pseudomonas syringae pv. phaseolicola …, UniProt Q48BD8 1-447, in vitro phosphorylated by AtCPK3; phosphorylated residues of this sample not given); assay: as above; conditions: both partners purified
T1 construct: HopQ1 (Hrp outer protein Q), type three effector of Pseudomonas syringae pv. phaseolicola 1448A, GenBank AAZ37975.1; also called phosphorylated HopQ1; recombinant HopQ1; source: phosphorylated in vitro by GST-AtCPK3, then ion-exchange and size-exclusion chromatography
T1 sequence: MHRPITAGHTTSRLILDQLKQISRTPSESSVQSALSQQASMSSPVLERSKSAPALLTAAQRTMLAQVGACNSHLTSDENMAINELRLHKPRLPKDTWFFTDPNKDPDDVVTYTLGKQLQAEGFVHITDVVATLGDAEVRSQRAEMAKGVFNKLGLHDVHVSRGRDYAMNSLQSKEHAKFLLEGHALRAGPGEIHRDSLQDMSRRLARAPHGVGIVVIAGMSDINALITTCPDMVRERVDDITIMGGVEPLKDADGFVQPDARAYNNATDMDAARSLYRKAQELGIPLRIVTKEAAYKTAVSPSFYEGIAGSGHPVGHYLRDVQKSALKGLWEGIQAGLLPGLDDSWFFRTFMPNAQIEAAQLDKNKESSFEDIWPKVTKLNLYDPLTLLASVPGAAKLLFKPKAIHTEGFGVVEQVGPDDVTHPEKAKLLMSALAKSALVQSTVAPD

B1: Nt14-3-3a protein tagged with Strep-tag II (natural protein, UniProt Q75ZE5 1-255, looked up)
chain: MASPREENVYLAKLAEQAERYEEMVEFMEKVVGAGDDELTVEERNLLSVAYKNVIGARRASWRIISSIEQKEESRGNEDHVASIKTYRSKIESELTSICNGILKLLDSKLIGTAATGDSKVFYLKMKGDYYRYLAEFKTGAERKEAAENTLSAYKSAQDIANVELAPTHPIRLGLALNFSVFYYEILNSPDRACNLAKQAFDEAIAELDTLGEESYKDSTLIMQLLRDNLTLWTSDMQDDGTDEIKEPSKAEEQQ
notes: 14-3-3a protein, Nt14-3-3a, GenBank BAD12168.1; also called 14-3-3 dimer; not shown: Strep-tag II, C-terminal, kept
- stoichiometry N [1]: 2
- stoichiometry N [2]: 2 14-3-3a per HopQ1
